# From paper PMC7057950 (Nature Communications, 2020)
# B1: human Hsp90β K607A (natural protein)
# chain: not shown
# notes: Hsp90β, human; pET28 vector, site-directed mutagenesis; source: E. coli BL21 (DE3) cod+, purified (HisTrap, Resource Q, Superdex 200)
# B2: human Hsp90β K607R (natural protein)
# chain: not shown
# notes: as for B1
# B3: human Hsp90β K607I (natural protein)
# chain: not shown
# notes: as for B1
# B4: human Hsp90β K607E (natural protein)
# chain: not shown
# notes: as for B1
# Biological target: the molecule itself
# Assay: SEC; Hsp90 dimerization assay: dilution series on Superdex 200 increase 10/300 GL (Shimadzu HPLC), fluorescence detection, 25 °C, 40 mM Hepes pH 7.5, 150 mM KCl, 5 mM MgCl2, 2 mM DTT; human Hsp90β 2 nM to 4 µM, yeast Hsp90 16 nM to 2 µM; KD = KD(app) divided by the dilution factor (about 4); dimer to monomers
row,Protein,binding result
1,B1,binds
2,B2,binds
3,B3,binds
4,B4,binds
